Measured values reported in patent US20240016847A1 (TRUSTEES OF COLUMBIA UNIVERSITY IN THE CITY OF NEW YORK, published 2024).

Key:
[1] = target: sfGFP linked to the PlGF123-144 peptide sequence with a flexible glycine-serine linker at the C-terminus …; experiment: cell-based or functional assay
[2] = target: sfGFP with a cysteine substitution at position D117 (D117C synthetic antigen) (Aequorea victoria (Water jellyfish) …, UniProt P42212 2-238 = GFP); experiment: cell-based or functional assay

B1: GFP specific ProCAR construct (GFP28z): sfGFP-binding nanobody, IgG4 hinge, CD28 transmembrane and intracellular domains, CD3zeta signaling domain (receptor)
chain: QVQLQESGGGSVQAGGSLKLSCAASGGAYRNACMGWFRQAPGKEREGVAIINSVDTTYYADPVKGRFTISRDNAKSTVYLLMNSLKPEDTAIYYCAQVARVVCPGDKLGASGYNYWGQGTQVTVSSGSESKYGPPCPCPAFWVLVVVGGVLACYSLLVTVAFIIFWVRSKRSRLLHSDYMNMTPRRPGPTRKHYQPYAPPRDFAAYRSLRVKFSRSADAPAYQQGQNQLYNELNLGRREEYDVLDKRRGRDPEMGGKPRRKNPQEGLYNELQKDKMAEAYSEIGMKGERRRGKGHDGLYQGLSTATKDTYDALHMQALPPR
[1]
  SA-driven fold expansion of GFP28z: 8 fold
  viability of GFP28z T cells after 24 hr with 500 ng/mL PlGF-SA, relative to untreated controls: ~72 % of untreated controls
[2]
  SA-driven fold expansion of GFP28z: 8 fold
